± gives the standard deviation of the averaged measurements.
Experiment: total protein half-life in vivo (active degradation + dilution); higher = more stable protein
[1] = E. coli NCM3722 delta-clpP delta-lon delta-hslV, growth: N-lim chemostat, doubling time 6 h
[2] = E. coli NCM3722 delta-clpP, growth: N-lim chemostat, doubling time 6 h
[3] = E. coli NCM3722 delta-hslV, growth: N-lim chemostat, doubling time 6 h
[4] = E. coli NCM3722 delta-lon, growth: N-lim chemostat, doubling time 6 h
[5] = E. coli NCM3722 delta-smpB, growth: N-lim chemostat, doubling time 6 h
[6] = wild type E. coli NCM3722, growth: C-lim chemostat, doubling time 3 h
[7] = wild type E. coli NCM3722, growth: C-lim chemostat, doubling time 6 h
[8] = wild type E. coli NCM3722, growth: C-lim chemostat, doubling time 12 h
[9] = wild type E. coli NCM3722, growth: N-lim chemostat, doubling time 6 h
[10] = wild type E. coli NCM3722, growth: N-lim chemostat, doubling time 12 h
[11] = wild type E. coli NCM3722, growth: P-lim chemostat, doubling time 6 h
[12] = wild type E. coli NCM3722, growth: P-lim chemostat, doubling time 12 h

**Q.** Which “total protein half-life in vivo” value [1] does the source give for “MSQNVYQFIDLQRVDPPKKPLKIRKIEFVEIYEPFSEGQAKAQADRCLSCGNPYCEWKCPVHNYIPNWLKLANEGRIFEAAELSHQTNTLPEVCGRVCPQDRLCEGSCTLNDEFGAVTIGNIERYINDKAFEMGWRPDMSGVKQTGKKVAIIGAGPAGLACADVLTRNGVKAVVFDRHPEIGGLLTFGIPAFKLEKEVMTRRREIFTGMGIEFKLNTEVGRDVQLDDLLSDYDAVFLGVGTYQSMRGGLENEDADGVYAALPFLIANTKQLMGFGETRDEPFVSMEGKRVVVLGGGDTAMDCVRTSVRQGAKHVTCAYRRDEENMPGSRREVKNAREEGVEFKFNVQPLGIEVNGNGKVSGVKMVRTEMGEPDAKGRRRAEIVAGSEHIVPADAVIMAFGFRPHNMEWLAKHSVELDSQGRIIAPEGSDNAFQTSNPKIFAGGDIVRGSDLVVTAIAEGRKAADGIMNWLEV” here?
**A.** 5.1 ± 0.5 h

**Q.** And the “total protein half-life in vivo” value [2]?
**A.** 4.59 ± 0.21 h

**Q.** What about the “total protein half-life in vivo” value [3] of the same sequence?
**A.** 4.73 ± 0.05 h

**Q.** And the “total protein half-life in vivo” value [4]?
**A.** 5.25 ± 0.19 h

**Q.** And the “total protein half-life in vivo” value [5]?
**A.** 4.63 ± 0.37 h

**Q.** And the “total protein half-life in vivo” value [6]?
**A.** 2.7 ± 0.04 h

**Q.** And the “total protein half-life in vivo” value [7]?
**A.** 4.602 ± 0.032 h

**Q.** What about the “total protein half-life in vivo” value [8] of the same sequence?
**A.** 7.68 ± 0.49 h

**Q.** What about the “total protein half-life in vivo” value [9] of the same sequence?
**A.** 4.9 ± 0.24 h

**Q.** What about the “total protein half-life in vivo” value [10] of the same sequence?
**A.** 7.719 ± 0.058 h

**Q.** What about the “total protein half-life in vivo” value [11] of the same sequence?
**A.** 4.54 ± 0.39 h

**Q.** What about the “total protein half-life in vivo” value [12] of the same sequence?
**A.** 8.48 ± 0.63 h

**Q.** With “MSQPLLSVNGLMMRFGGLLAVNNVNLELYPQEIVSLIGPNGAGKTTVFNCLTGFYKPTGGTILLRDQHLEGLPGQQIARMGVVRTFQHVRLFREMTVIENLLVAQHQQLKTGLFSGLLKTPSFRRAQSEALDRAATWLERIGLLEHANRQASNLAYGDQRRLEIARCMVTQPEILMLDEPAAGLNPKETKELDELIAELRNHHNTTILLIEHDMKLVMGISDRIYVVNQGTPLANGTPEQIRNNPDVIRAYLGEA [P0A9S7]” as the sequence, how does the “total protein half-life in vivo” value [1] read?
**A.** 6.52 ± 0.66 h

**Q.** What about the “total protein half-life in vivo” value [2] of the same sequence?
**A.** 6.12 ± 0.48 h

**Q.** What about the “total protein half-life in vivo” value [3] of the same sequence?
**A.** 6.06 ± 0.53 h

**Q.** And the “total protein half-life in vivo” value [4]?
**A.** 6.07 ± 0.61 h

**Q.** And the “total protein half-life in vivo” value [5]?
**A.** 5.74 ± 0.43 h

**Q.** And the “total protein half-life in vivo” value [6]?
**A.** 3.12 ± 0.036 h

**Q.** And the “total protein half-life in vivo” value [7]?
**A.** 6.18 ± 0.31 h

**Q.** What about the “total protein half-life in vivo” value [8] of the same sequence?
**A.** 11.99 ± 0.11 h

**Q.** What about the “total protein half-life in vivo” value [9] of the same sequence?
**A.** 6.06 ± 0.2 h

**Q.** And the “total protein half-life in vivo” value [10]?
**A.** 12.3 ± 0.36 h

**Q.** And the “total protein half-life in vivo” value [11]?
**A.** 6.12 ± 0.34 h

**Q.** What about the “total protein half-life in vivo” value [12] of the same sequence?
**A.** 12.9 ± 0.69 h

**Q.** Which “total protein half-life in vivo” value [1] does the source give for “MSQPLNADQELVSDVVACQLVIKQILDVLDVIAPVEVREKMSSQLKNIDFTNHPAAADPVTMRAIQKAIALIELKFTPQGESH [P0AD10]” here?
**A.** 5.83 ± 0.39 h

**Q.** And the “total protein half-life in vivo” value [3]?
**A.** 5.15 h

**Q.** What about the “total protein half-life in vivo” value [5] of the same sequence?
**A.** 3.91 ± 0.9 h

**Q.** And the “total protein half-life in vivo” value [6]?
**A.** 3.21 h

**Q.** And the “total protein half-life in vivo” value [7]?
**A.** 4.53 ± 0.82 h

**Q.** And the “total protein half-life in vivo” value [8]?
**A.** 8.31 ± 0.17 h

**Q.** And the “total protein half-life in vivo” value [9]?
**A.** 3.32 h

**Q.** What about the “total protein half-life in vivo” value [10] of the same sequence?
**A.** 6.2 h

**Q.** And the “total protein half-life in vivo” value [11]?
**A.** 4.76 ± 1.4 h

**Q.** What about the “total protein half-life in vivo” value [12] of the same sequence?
**A.** 10.3 ± 0.33 h

**Q.** With “MSQSLFSQPLNVINVGIAMFSDDLKKQHVEVTQLDWTPPGQGNMQVVQALDNIADSPLADKIAAANQQALERIIQSHPVLIGFDQAINVVPGMTAKTILHAGPPITWEKMCGAMKGAVTGALVFEGLAKDLDEAAELAASGEITFSPCHEHDCVGSMAGVTSASMFMHIVKNKTYGNIAYTNMSEQMAKILRMGANDQSVIDRLNWMRDVQGPILRDAMKIIGEIDLRLMLAQALHMGDECHNRNNAGTTLLIQALTPGIIQAGYSVEQQREVFEFVASSDYFSGPTWMAMCKAAMDAAHGIEYSTVVTTMARNGVEFGLRVSGLPGQWFTGPAQQVIGPMFAGYKPEDSGLDIGDSAITETYGIGGFAMATAPAIVALVGGTVEEAIDFSRQMREITLGENPNVTIPLLGFMGVPSAIDITRVGSSGILPVINTAIAHKDAGVGMIGAGIVHPPFACFEKAILGWCERYGV” as the sequence, how does the “total protein half-life in vivo” value [1] read?
**A.** 5.39 ± 0.44 h

**Q.** And the “total protein half-life in vivo” value [7]?
**A.** 4.45 h

**Q.** What about the “total protein half-life in vivo” value [8] of the same sequence?
**A.** 7.84 h

**Q.** What about the “total protein half-life in vivo” value [9] of the same sequence?
**A.** 2.89 h

**Q.** What about the “total protein half-life in vivo” value [10] of the same sequence?
**A.** 4.45 h

**Q.** What about the “total protein half-life in vivo” value [12] of the same sequence?
**A.** 8.94 ± 0.66 h

**Q.** What does the source list for “MSQTIDLTLDGLSCGHCVKRVKESLEQRPDVEQADVSITEAHVTGTASAEQLIETIKQAGYDASVSHPKAKPLAESSIPSEALTAVSEALPAATADDDDSQQLLLSGMSCASCVTRVQNALQSVPGVTQARVNLAERTALVMGSASPQDLVQAVEKAGYGAEAIEDDAKRRERQQETAVATMKRFRWQAIVALAVGIPVMVWGMIGDNMMVTADNRSLWLVIGLITLAVMVFAGGHFYRSAWKSLLNGAATMDTLVALGTGVAWLYSMSVNLWPQWFPMEARHLYYEASAMIIGLINLGHMLEARARQRSSKALEKLLDLTPPTARLVTDEGEKSVPLAEVQPGMLLRLTTGDRVPVDGEITQGEAWLDEAMLTGEPIPQQKGEGDSVHAGTVVQDGSVLFRASAVGSHTTLSRIIRMVRQAQSSKPEIGQLADKISAVFVPVVVVIALVSAAIWYFFGPAPQIVYTLVIATTVLIIACPCALGLATPMSIISGVGRAAEFGVLVRDADALQRASTLDTVVFDKTGTLTEGKPQVVAVKTFADVDEAQALRLAAALEQGSSHPLARAILDKAGDMQLPQVNGFRTLRGLGVSGEAEGHALLLGNQALLNEQQVGTKAIEAEITAQASQGATPVLLAVDGKAVALLAVRDPLRSDSVAALQRLHKAGYRLVMLTGDNPTTANAIAKEAGIDEVIAGVLPDGKAEAIKHLQSEGRQVAMVGDGINDAPALAQADVGIAMGGGSDVAIETAAITLMRHSLMGVADALAISRATLHNMKQNLLGAFIYNSIGIPVAAGILWPFTGTLLNPVVAGAAMALSSITVVSNANRLLRFKPKE”?
**A.** total protein half-life in vivo [1]: 5.76 ± 0.52 h; total protein half-life in vivo [2]: 5.33 ± 0.2 h; total protein half-life in vivo [3]: 5.194 ± 0.042 h; total protein half-life in vivo [4]: 5.433 ± 0.023 h; total protein half-life in vivo [5]: 5.23 ± 0.55 h; total protein half-life in vivo [6]: 2.89 ± 0.21 h; total protein half-life in vivo [7]: 5.07 ± 0.085 h; total protein half-life in vivo [8]: 9.5 ± 0.77 h; total protein half-life in vivo [9]: 5.26 ± 0.34 h; total protein half-life in vivo [10]: 9.52 ± 0.35 h; total protein half-life in vivo [11]: 5.33 ± 0.32 h; total protein half-life in vivo [12]: 9.65 ± 0.45 h

**Q.** Which results are given for “MSQTVHFQGNPVTVANSIPQAGSKAQTFTLVAKDLSDVTLGQFAGKRKVLNIFPSIDTGVCAASVRKFNQLATEIDNTVVLCISADLPFAQSRFCGAEGLNNVITLSTFRNAEFLQAYGVAIADGPLKGLAARAVVVIDENDNVIFSQLVDEITTEPDYEAALAVLKA [P0A862]”?
**A.** total protein half-life in vivo [1]: 5.35 ± 0.21 h; total protein half-life in vivo [2]: 5.2 ± 0.74 h; total protein half-life in vivo [3]: 5.25 ± 0.47 h; total protein half-life in vivo [4]: 4.96 ± 0.085 h; total protein half-life in vivo [5]: 4.739 ± 0.047 h; total protein half-life in vivo [6]: 3.16 ± 0.047 h; total protein half-life in vivo [7]: 6.01 ± 0.23 h; total protein half-life in vivo [8]: 10.8 ± 1.2 h; total protein half-life in vivo [9]: 5.01 ± 0.18 h; total protein half-life in vivo [10]: 9.45 ± 1.1 h; total protein half-life in vivo [11]: 6.09 ± 0.53 h; total protein half-life in vivo [12]: 13.3 ± 0.69 h
